The record followed here is patent US20240409617A1.

To fix the notation:
B1: Ab_26 scFv-Fc (scFv, V domains shown)
VH: QVQLVQSGGGLVQPGRSLRLSCAASGFTFDDYAMHWVRQVPGKGLEWVSGIDWNSGVIGYADSVKGRFTISRDNAKNSLYLQMNSLRAEDTALYYCAKDAYSYGFLGAFDIWGQGTMVTVSS
VL: LPVLTQPPSVSVAPGQTASITCGGDNIRTKGVHWYQQKPGQAPLLVIYYASDRPSGIPERFSGSSSGNTATLTISRVEAGDEADYYCQVWDSSSDLVVFGGGTTLTVL
B2: Ab_18 scFv-Fc (scFv, V domains shown)
VH: EVQLVQSGGGVVQPGRSLRVSCAASGFSFSRYGMHWVRQAPGKGLEWVAFIRHDGSKKYYADSVEGRFTISRDNSRNTVSLEMNSLRGEDTAVYYCAKDGRLEAALDDWGQGTLVTVSS
VL: NFMLTQPHSMSGSAGKTVTVSCIRSSGSIANNFVQWYQQRPGSAPTTVIYEDNQRPSGVPDRFSGSIDSSSNSASLTISGLKTEDEADYYCQSYDSSNLVFGGGTRLTVL
B3: Ab_28 scFv-Fc (scFv, V domains shown)
VH: QVTLKESGPGLVNPSETLSLTCTVSGASISNSFWSWIRQSPGKGLEWIGYTSYSGNSIYNPSLKSRLTMSIDTSKNQLSLNLRSLTAADTAVYYCARREWIKGHFDYWGQGTLVTVSS
VL: NFMLTQPHSVSESPGKTVTISCTGSGGSIASNYVQWYQQRPGSAPTTVIYEDNQRPSGVPDRFSGSIDSSSNSASLTISGLKTEDEADYYCQSYDSSNPVVFGGGTKLTVL
B4: S1-RBD-R3-T1-F5 (Ab2-7) scFv-Fc (scFv, V domains shown)
VH: QVTLKESGPTRVKPTQTLTLTCTFSGFSLSTTGVGVGWIRQPPGKALEWLALIYWNDDKRYSPSLKSRLTITKDTSKNQVVLTMTNMDPVDTATYYCARISGSGYFYPFDIWGQGTTVTVSS
VL: NFMLTQPHSVSESPGKTVTISCTRSSGSIASNYVQWYQQRPGSSPTTVIYEDNQRPSGVPDRFSGSIDSSSNSASLTISGLKAEDEADYYCQSYDSSSLWVFGGGTKLTVL
B5: Ab_13 scFv-Fc (scFv, V domains shown)
VH: QVTLKESGPKLVKPTQTLTLTCTFSGFSLSTSGVGVGWIRQPPGKALEWLALIYWDDDKRYSPSLKSRLTIAKDTSKYQVVLTMTNMDPVDTATYYCARISGSGYFYPFDIWGQGTMVTVSA
VL: NFMLTQPHSVSESPGKTVTISCTRSSGSIASNYVQWYQQRPGSAPTTVIYEDNQRPSGVPDRFSGSIDSSSNSASLTISGLKTEDEADYYCQSYDSSNLWVFGGGTKLTVL
B6: S1-RBD-R3-T1-C7 Ab (Ab_29) scFv-Fc (scFv, V domains shown)
VH: QVQLQQSGPGLVKPSQTLSLTCAISGDSVSSYSDAWNWIRQSPSRGLEWLGRTYYRSKWYNDYAVSVKSRITINPDTSKNQFSLQLSSVTPEDTAVYYCAREIVATTPFRNYYYGMDVWGQGTTVTVSS
VL: NFMLTQPHSVSESPGNTVTISCTRTSGSIASNYVQWYQQRPGSSPTTVIFQDKLRPSGVPDRFSGSIDSSSNSASLTISGLKTEDEADYYCQSYDSSSLWVFGGGTKLTVL
B7: Ab_25 scFv-Fc (scFv, V domains shown)
VH: QVQLVQSGGGLVQPGGSLRLSCAASGFTFSSYWMSWVRQAPGKGLEWVANIKQDGSEKYYVDSVKGRFTISRDNAKNSLYLQMNSLRAEDTAVYYCARGFYYYGAFDIWGQGTTVTVSS
VL: NFMLTQPHSVSESPGKTVTISCTGSSGSIASNYVQWYQQRPGSAPTTVIYEDNQRPSGVPDRFSGSIGSSSNSASLTISGLKTEDEADYYCQSYDSSNHWVFGGGTKLTVL
B8: Ab_20 scFv-Fc (scFv, V domains shown)
VH: QVQLVQSGGGSVKPGGSLRLSCAASGYRLSDYYMHWVRQAPGKGLEWVANIKQDGSEKYYVDSVKGRFTISRDNAKNSLYLQMNSLRAEDTAVYYCARVRGWSRGYFDYWGQGTLVTVSS
VL: NFMLTQPHSVSESPGKTVTISCTGSSGSIASNYVQWYQQRPGSAPTTVIYEDNQRPSGVPDRFSGSIDSSSNSASLLISGLKTEDEADYYCQSYDSSNHWVFGGGTKLTVL
B9: Ab_23 scFv-Fc (scFv, V domains shown)
VH: EVQLVQSGAEVKKPGSSVKVSCRSSGGTFSTYGITWVRQAPGQGLEWMGRIIPSLGIPNYAQKFQGRVTITADTSVSTAWMELSSLESDDTAIYYCARENIDLATNDFWGQGTLVTVSS
VL: QSALTQPPSASGSPGQSVTISCTGTSRDIGAYGYVSWYQQVPGKAPKLIIYEVRNRPSGVSSRFSGSKSGNTASLTISGLQAEDEADYYCSSYTSSSTLDVVFGGGTKLTVL
B10: Ab_14 scFv-Fc (scFv, V domains shown)
VH: QVQLQQSGPGLVKPSQTLSLTCAISGDSVSSNSAAWNWIRQSPARGLEWLGRTYYRSRWYNDYAISMKSRITINPDTSKNQFSLQLESVTPEDTAVYYCAREIRGFDYWGQGTLVTVSS
VL: QSVLTQPPSASGSPGQSVTISCTGTSSDVGAYNFVSWYQHHPGKAPKLIIYDFNKRPSGVPDRFSGSKSGNTASLTVSGLQADDEADYYCSSYAGSNNFDVVFGGGTKLTVL
B11: Ab_16 scFv-Fc (scFv, V domains shown)
VH: QVQLVQSGGGVVQPGRSLRLSCAASGFTFSNYGMHWVRQAPGKGLEWVALIWERGSKKDYADSVKGRFTVSRDNSKNTLYLQMNSLRPEDTAVYFCAREGISMTGAEYFQHWGQGTLVTVSS
VL: QSVLTQPPSVSGSPGQRVTMSCTGSSSNIGAGYDVHWYQQVPGAAPRLLIYGTNNRPSGVPDRFSGSKSGTSASLTITGLQAEDEADYYCQSYDNSLTDPYVFGTGTKVTVL
B12: S1-RBD-R3-T1-B12 Ab (Ab_31) scFv-Fc (scFv, V domains shown)
VH: QVQLVQSGAEVKKPGSSVKVSCKASGGTFSSYTISWVRQAPGQGLEWMGGIIPILGTPNYAQKFQDRVAITADKSTSTAYMELSSLRSEDTAVYYCAVGSGWYSGFDYWGQGTLVTVSS
VL: NFMLTQPHSVSESPGKTVTISCTGSSGSIASNYVQWYQQRPGSAPTTVIYEDSQRPSGVPDRFSGSIDSSSNSASLTISGLKTEDEADYYCQSFHNSNPVIFGGGTKLTVL
B13: Ab_19 scFv-Fc (scFv, V domains shown)
VH: EVQLVESGAEVKKPGESLKISCKGSGYSFTSYWIGWVRQMPGKGLEWMGIIYPGDSDTRYSPSFQGQVTISADKSISTAYLQWSSLKASDTAMYYCARRGDLDAFDIWGQGTMVTVSS
VL: QPGLTQPPAASGTPGQRVTVSCSGASANIGSNAVSWFKQFPETAPRLLISGNTHRPSGVPDRVSGSKSGTSASLTISGLQSDDEADYYCAAWDDSLNGYVFGSGTKVTVL
B14: S1-R3-T1-C4 (Ab_8) scFv-Fc (scFv, V domains shown)
VH: QVQLVQSGAEVKKPGSSVKVSCKASGGTFSSYAISWLRQAPGQGLEWMGWINPNSGGTNYAQKFQGRVTMTRDTSISTAYMELSRLRSDDTAVYYCARGSGGYYLGWGQGTLVTVSS
VL: QPGLTQPPSVSKGLRQTATLTCTGNSNNVGNQGAAWLQQHQGHPPKLLSYMNNNRPPGISERFSASRSGNTASLTITGLQPEDEADYYCSAWDSSLSRWVFGGGTKLSVL
B15: RBD-R3-E1-B3 Ab (Ab_32) scFv-Fc (scFv, V domains shown)
VH: QVQLVQSGAEVKKPGESLKISCKGSGYSFTSYWIGWVRQMPGKGLEWMGIIYPGDSDTRYSPSFQGQVTISADKSISTAYLQWSSLKASDTAMYYCARGWQWHDYWGQGTLVTVSS
VL: QTVVTQEPAVSVALGQTVRITCQGDSLRSYYASWYQQKPGQAPVLVVYDKDKRPSGIPDRFSGSTSGNTASLTITGAQAEDEADYYCNSRDRSDNHVVFGGGTKLTVL
B16: Ab_21 scFv-Fc (scFv, V domains shown)
VH: QVQLVQSGGGLVQPGGSLRLSCATSGFTFDDYAMHWVRQAPGKGLEWVSGISWNSGSIGYVDSVKGRFTISRDNRNNKVYLQMNNLRAEDTAVYYCARDWWGSIDHWGLGTLVTVSS
VL: QSALTQPRSVSGSPGQSVTISCTGTSSDVGGYDYVSWYQQHPGKAPKLIIYDVSKRPSGVPDRFSGSKSGNTASLTVSGLQAEDEADYYCSSYTSSSPVVFGGGTKLTVL
B17: Ab_17 scFv-Fc (scFv, V domains shown)
VH: QVQLVQSGGGVVQPGRSLRLSCAASGFTFDDYAMHWVRQVPGKGLEWVSGIDWNSGVIGYADSVKGRFTISRDNVKNSLYLQMNSLRTEDSALYYCAKDIGPGGSGSYYAFDIWGQGTTVTVSS
VL: QSALTQPASVSGSPGQSITISCTGTSSDVGGSKYVSWYQQHPGKAPKVMIYDVTKRPSGVPDRFSGSKSGNTASLTISGLQAEDEADYYCAAWDDSLNGVVFGGGTKLTVL
B18: RBD-R3-E1-A5 Ab (Ab_30) scFv-Fc (scFv, V domains shown)
VH: QVQLVQSGGGVVQPGKSLRLSCTASGFTFSDFPIHWVRQAPGKGLEWVGVISYDGNIKYYGDSVKGRFTISRDNAKNSLYLQMNSLRVEDTAVYYCARGGSSFDIWGQGTTVTVSS
VL: SYELTQPPSVSEAPRQRVTISCSGSTSNIGNNAVSWYQHLPGKAPKLLIYYNERLPSGVSDRFSGSKSGTSASLAISGLRSEDEADYYCAAWDDSLSGHVVFGGGTKLTVL
B19: Ab_27 scFv-Fc (scFv, V domains shown)
VH: QVQLVQSGTEVKKPGASVKVSCKASGYSFTGSHLHWVRQAPGQGLEWMGWINPDSGVINYAQKFQGRVTLTRDTSISTAYMELSGLRSDDTAVYYCARDKAIGYVWALDYWGQGTLVTVSS
VL: QSALTQPPSVSGSPGQSVTISCTGTSSDVGTYNRVSWYQQPPGKAPKLMIYEVSNRPSGVSNRFSGSKSGNTASLTISGLQAEDEADYYCSSYTRTFTYVFGTGTKVTVL
B20: Ab2-7 IgG (antibody, V domains shown)
VH: QVTLKESGPTRVKPTQTLTLTCTFSGFSLSTTGVGVGWIRQPPGKALEWLALIYWNDDKRYSPSLKSRLTITKDTSKNQVVLTMTNMDPVDTATYYCARISGSGYFYPFDIWGQGTTVTVSS
VL: NFMLTQPHSVSESPGKTVTISCTRSSGSIASNYVQWYQQRPGSSPTTVIYEDNQRPSGVPDRFSGSIDSSSNSASLTISGLKAEDEADYYCQSYDSSSLWVFGGGTKLTVL

One test concerns the target D614G Spike (SARS-CoV2).
In turn, B1 yielded a Kd of 9.97 pM and a Response of 0.304.

Molecule B2 registered a Kd of 6.33 pM and a Response of 0.291.

With B3, the Kd is 9.41 pM and the Response turned out to be 0.199.

For B4, the Kd worked out at 9.93 pM and the Response was 0.116.

B5 came in with a Kd of 8.1 pM and a Response of 0.107.

Regarding B6, the Kd stood at 1.04 pM and the Response is 0.202.

In turn, B7 yielded a Kd of 8.56 pM and a Response of 0.0425.

In the case of B8, the Kd was 8.64 pM and the Response worked out at 0.19.

In turn, B9 returned a Kd of 8.82 pM and a Response of 0.162.

In the case of B10, the Kd is 8.12 pM and the Response was 0.402.

B11 had a Kd of 8.35 pM and a Response of 0.434.

As to B12, the Kd worked out at 9.03 pM and the Response amounted to 0.168.

As for B13, the Kd was determined as 10.9 pM and the Response came out at 0.237.

As to B14, the Kd worked out at 7.3 pM and the Response was determined as 0.187.

Molecule B15 showed a Kd of 7.26 pM and a Response of 0.204.

On to B16, for which the Kd was 8 pM and the Response came to 0.228.

For B17, the Kd was found to be 6.8 pM and the Response was 0.357.

Consider B18, for which the Kd stood at 7.43 pM and the Response is 0.179.

B19 displayed a Kd of 7.53 pM and a Response of 0.276.

The target in a further test is SARS-CoV-2 spike trimer, soluble (SARS-CoV-2).
Turning to B20, the Kd is < 1 pM, the koff was < 1e-07 s⁻¹ and the kon was determined as 4.31e+07 M⁻¹ s⁻¹.

By Kd is commonly meant the concentration at which binding is half-saturated. The term koff denotes a measure of how fast the partners let go of each other. A low value points to a long-lived complex. A word on the kon: it is the rate constant with which the complex forms. The low end stands for slower complex formation, the high end for faster complex formation.
